# Experimental data from patent publication US20250066421A1.
# *1 amine or outer side, *2 acyl side, *3 side chain or, on linkers, in order; H or OH if unused. Bridges are numbered along the chain shown (N, C = ends). Where no end group is shown, it is not given here. [ ]: non-standard residue; d: D form. TATA = O=C(CC[*:1])N1CN(C(=O)CC[*:2])CN(C(=O)CC[*:3])C1; 1Nal = N[C@@H](Cc1cccc2ccccc12)C(=O)O; PABC = O=C(OCc1ccc(N[*:1])cc1)[*:2]; Glutaryl = O=C(CCCC(=O)[*:2])[*:1]; Cya = N[C@@H](CS(=O)(=O)O)C(=O)O; Hyp = O=C(O)[C@@H]1C[C@@H](O)CN1; dCya = N[C@H](CS(=O)(=O)O)C(=O)O; hArg = N=C(N)NCCCC[C@H](N)C(=O)O; Cit = NC(=O)NCCC[C@H](N)C(=O)O; βAla = NCCC(=O)O; Sar = CNCC(=O)O
# Assays:
# [1] = target: Human Nectin-4 (residues Gly32-Ser349; NCBI RefSeq: NP_112178.2) with C-terminal FLAG tag, biotinylated (human) (UniProt Q96NY8); experiment: SPR (Biacore 3000), biotinylated human Nectin-4 on streptavidin CM5 chip, peptide as analyte
# [2] = target: T1, human Nectin-4 (human), Q96NY8; experiment: FP competition with tracer m4; settings: remark: other sources report otherwise
# T1 chain: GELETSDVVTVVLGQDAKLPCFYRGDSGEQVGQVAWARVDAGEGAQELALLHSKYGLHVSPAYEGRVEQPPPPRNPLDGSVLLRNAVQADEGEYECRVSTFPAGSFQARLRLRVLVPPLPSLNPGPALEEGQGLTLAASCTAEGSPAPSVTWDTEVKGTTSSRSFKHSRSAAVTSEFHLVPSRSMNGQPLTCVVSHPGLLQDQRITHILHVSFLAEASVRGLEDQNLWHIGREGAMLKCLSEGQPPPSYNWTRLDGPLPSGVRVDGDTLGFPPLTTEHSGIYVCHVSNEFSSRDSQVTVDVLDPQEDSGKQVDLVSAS
# [3] = target: Human Nectin-4 (residues Gly32-Ser349; NCBI RefSeq: NP_112178.2) with C-terminal FLAG tag, biotinylated (human) (UniProt Q96NY8); experiment: SPR (Biacore 3000), biotinylated human Nectin-4 on streptavidin CM5 chip, drug conjugate as analyte
Binder,Kd [1] [nM],other results
{Ac-βAla}-[Sar][Sar][Sar][Sar][Sar][Sar][Sar][Sar][Sar][Sar]CP[1Nal][dCya]CM[hArg][Cya]WSTP[Hyp]WC (linker 11-15-25 via TATA) [BCY8280: Ac-[B-Ala][Sar10]-(SEQ ID NO: 209)],2,
Ac-CP[1Nal][dD]CM[hArg][Cya]WSTP[Hyp]WC (linker 1-5-15 via TATA) [BCY8161: Ac-(SEQ ID NO: 177)],0.94,
{Ac-βAla}-[Sar][Sar][Sar][Sar][Sar][Sar][Sar][Sar][Sar][Sar]CP[1Nal][dD]CM[Cya][Cya]WSTP[Hyp]WC (linker 11-15-25 via TATA) [BCY8281: Ac-[B-Ala][Sar10]-(SEQ ID NO: 210)],6.11,
ACPFGCMKNWAWPIWCTNK (linker 2-6-16 via TATA) [BCY7424],,Ki [2]: 562 nM
{MMAE-PABC-Cit-Val-Glutaryl-βAla}-[Sar][Sar][Sar][Sar][Sar][Sar][Sar][Sar][Sar][Sar]CP[1Nal][dCya]CM[hArg][Cya]WSTP[Hyp]WC (linker 11-15-25 via TATA) [BCY8784: MMAE-PABC-Cit-Val-Glutaryl-BCY8273],,Kd [3]: 0.662 nM
{Ac-βAla}-[Sar][Sar][Sar][Sar][Sar][Sar][Sar][Sar][Sar][Sar]CP[1Nal][dD]CM[hArg][Cya]WSTP[Hyp]WC (linker 11-15-25 via TATA) [BCY8278: Ac-[B-Ala][Sar10]-(SEQ ID NO: 177)],1.92,
